Reference: article PMC11617104 (Molecular Biology of the Cell, 2024)

What was measured:
[1] = molecular target: G3BP1 NTF2L domain (residues 1-139), wild type (UniProt Q13283 1-139); test: differential scanning fluorimetry
[2] = molecular target: G3BP1 NTF2L domain (residues 1-139), V11A (UniProt Q13283 1-139, V11A); test: differential scanning fluorimetry
Sequence of G3BP1 NTF2L domain (residues 1-139), V11A (Q13283 1-139 V11A): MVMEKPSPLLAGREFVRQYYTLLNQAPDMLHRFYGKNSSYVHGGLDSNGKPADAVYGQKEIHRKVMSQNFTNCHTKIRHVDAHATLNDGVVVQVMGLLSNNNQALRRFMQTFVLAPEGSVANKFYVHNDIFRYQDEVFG

Sequence of G3BP1 NTF2L domain (residues 1-139), wild type (Q13283 1-139): as the sequence (Q13283 1-139 V11A) above, with A11V counted along it

With RQRVQDLMAQMQGPYNFIQDSMLDFENQTLD [Caprin-1 peptide (residues 356-386)] the “thermal shift (ΔTm) at 50 µM and 100 µM Caprin-1 peptide” value [1] was roughly 3 °C and the “thermal shift (ΔTm)” value [2] was 1 to 1.5 °C.
